The target of the test is Vrl1-Envy (S. cerevisiae). The test is described as follows: co-IP; yeast spheroplast lysates (0.1% Tween-20, 50 mM HEPES, 1 mM EDTA, 50 mM NaCl, pH 7.4); rabbit anti-GFP or anti-HA, Protein A Sepharose, 4 °C; western blot; Vrl1 over-expressed in some panels; vin1Δ strain for Vps5-3HA with Vrl1-Envy. (A western blot detects proteins with antibodies after separation by electrophoresis.)

Experimental findings from PMC9507130 are described below.

B1: Vin1-3HA (natural protein)
chain: MENDKASHASPSIGVNEFVVQGEISIDDSERSVKSVSVSISDDEDSKTDVQDNMATPSTRSKFQTDLAIDNRLLEKDPKYKKLFTEKRRRRRPESCINLMTKGKGTGQKDNINDQIFSLRILPGSDLNSLKDSLWIIKISTQPDVEKTIARAFSDFYWLYHQLQNNHWGKTIPPPTRSNILVEKDEFAINHLFMIRNNEKYDPIFNFKPEYIISLQLMAMIKHIFNDKVLRLDSNFIDFISWDDDLPESLQIVVDDSTFTGDKILMTSSQFRELKEFHKQSKKVESITNSHASLIPVTELTEIYISPTKLFSRKDYQRLFQPQSTDNTFNNNDPLIQEWIPKSKTLFTSLSFGSSAPTYQEASTEIQACHDWVSISKEQWKQLLYHVLQYIVDEAVKVNSVINEFTECLKQISLDEVIRANSELFLKFSKLNESFLKKFKGASRQDILKLIILFDENVRFCESFESILNQRLKLGKILSIIEVDLDKKKNFLDKLSPGNNNSNNEDLKIRTAEDEYRIVLKRYNRVKQSWEKIMEDILNERKEFEKREAAEVNSCLKSIRDLNMDEKKHYLQLWQDFVPDEHISQ
Molecule B1 yielded a percent recovery of Vin1 in the co-IP of 64%.
